Assay results taken from patent publication US20020137055, “Method and apparatus for measurement of the effect of test compounds on signal transduction at the level of biological receptors” (published 2002).

Assays:
Conditions in all cases: protein: extract; tags: Cy5-labelled; expressed as ubiquitin fusion in Saccharomyces cerevisiae AF103 (YEpE10 plasmid); yeast extract preparation
[1] = target: T1, human estrogen receptor (recombinant hER, 65 kDa) (Homo sapiens, UniProt P03372 P03372:1-595); test: evanescent fiber optic sensor; control, no ligand; 4.4e-10 M receptor; 500 mM KCl phosphate pH 7.5, poly(dI-dC)
T1 sequence (P03372 whole entry, one chain of several): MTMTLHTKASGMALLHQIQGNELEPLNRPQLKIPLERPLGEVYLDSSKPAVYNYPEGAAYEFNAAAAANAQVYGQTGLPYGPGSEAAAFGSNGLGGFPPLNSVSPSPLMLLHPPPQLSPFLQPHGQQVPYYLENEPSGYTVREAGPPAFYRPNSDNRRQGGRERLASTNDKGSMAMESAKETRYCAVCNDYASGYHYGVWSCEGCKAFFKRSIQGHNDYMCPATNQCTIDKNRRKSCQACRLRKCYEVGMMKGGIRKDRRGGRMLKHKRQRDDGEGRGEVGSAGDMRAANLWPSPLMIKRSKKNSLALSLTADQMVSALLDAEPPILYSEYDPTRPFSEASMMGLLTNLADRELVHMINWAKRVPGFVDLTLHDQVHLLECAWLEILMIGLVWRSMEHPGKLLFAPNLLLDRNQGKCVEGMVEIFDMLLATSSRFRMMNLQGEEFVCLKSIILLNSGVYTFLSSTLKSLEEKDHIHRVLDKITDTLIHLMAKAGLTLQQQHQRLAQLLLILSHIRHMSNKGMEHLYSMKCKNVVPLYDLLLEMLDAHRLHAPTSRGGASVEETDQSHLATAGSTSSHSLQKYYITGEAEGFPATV
Protocol: (§1) This solution comprised said calibration standard of component 6a. […] This receptor preparation was used as the calibration solution. Immediately after preparation it was pipetted in 135 μl aliquots into microcentrifuge tubes, snap frozen and stored at −80° C. They were not thawed again until they were used with the fiber sensor. Sample solutions of component 6a were similarly prepared, except that the dilution at the end with receptor buffer gave a total receptor concentration of […]. If the solution was to be used with an ERE fiber (component 1a type 2), then polydeoxyinosinic-deoxycytidylic acid sodium salt was added to the receptor buffer to prevent nonspecific binding to the ERE fiber. Solutions containing 4.4×10⁻¹⁰ M Cy5-tagged-estrogen-receptor solution and in addition to a predetermined amount of estrogen or estrogen mimic were created to test the impact of said estrogen or estrogen mimic.
(§2) 12) Using fiber sensors of component 1a type 2, and the foregoing procedure the S/C value was calculated for several different estrogens tested at 10⁻⁶ M concentration.

[2] = target: T1, human estrogen receptor (recombinant …); test: evanescent fiber optic sensor; with 1e-6 M zearalenone; control 3.51
Protocol: as §1, §2

[3] = target: T1, human estrogen receptor (recombinant …); test: evanescent fiber optic sensor; with 1e-6 M diethylstilbestrol; control 3.51
Protocol: as §1, §2

[4] = target: T1, human estrogen receptor (recombinant …); test: evanescent fiber optic sensor; with 1e-6 M estrone; control 3.51
Protocol: as §1, §2

B1: ERE (Xenopus vitellogenin A2 estrogen response element) (dsDNA)
DNA 1: GTCCAAAGTCAGGTCACAGTGACCTGATCAAAGTT
DNA 2: AACTTTGATCAGGTCACTGTGACCTGACTTTGGAC
modifications: amine on the 5' G residue of one strand, covalently linked to optical fiber via GMBS
binding signal [1]: 3.51 S/C ratio
binding signal [2]: 5.01 S/C ratio
binding signal [3]: 4.87 S/C ratio
binding signal [4]: 4.44 S/C ratio
